Measurements taken from article PMC6299665 (Journal for Immunotherapy of Cancer, 2018).

Columns and labels:
[1] = molecular target: T1, human OX40, histidine-tagged recombinant (human, UniProt P43489 29-214); test: SPR
T1 chain: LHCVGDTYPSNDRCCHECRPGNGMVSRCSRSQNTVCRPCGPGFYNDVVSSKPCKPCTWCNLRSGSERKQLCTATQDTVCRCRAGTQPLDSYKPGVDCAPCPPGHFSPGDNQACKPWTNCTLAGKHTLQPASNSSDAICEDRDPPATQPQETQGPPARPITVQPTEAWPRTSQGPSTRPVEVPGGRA

[2] = molecular target: T2, human OX40, histidine-tagged recombinant (human, UniProt P43489 29-214); test: SPR; BioRAD ProteOn XPR36; His-tagged targets immobilised on Ni-activated HTG chip; analyte in PBS/Tween (0.005%) pH 7.0, 3 min injection, 5 min dissociation, flow 80-100 μl/min; conditions: both partners purified
T2 construct: OX40, human, recombinant; also called hOX40-His; source: bought: Acro Biosystems (SPR); for the ELISAs the vendor is one of Jackson ImmunoResearch, Sino Biological, Acro Biosystems, R&D Systems
T2 sequence (looked up): T1 chain

B1: recombinant human OX40L-Fc (Fc fusion, UniProt P23510 51-183, looked up)
chain: QVSHRYPRIQSIKVQFTEYKKEKGFILTSQKEDEIMKVQNNSVIINCDGFYLISLKGYFSQEVNISLHYQKDEEPLFQLKKVRSVNSLMVASLTYKDKVYLNVTTDNTSLDDFHVNGGELILIHQNPGEFCVL
notes: OX40L, human, recombinant Fc fusion; The background says in general that in OX40L-Fc proteins the Fc precedes OX40L; also called hOX40L-Fc; Fc-OX40L; source: bought: Acro Biosystems
B1 was tested, and the koff [1] was 0.00069 s⁻¹ and the Kd [2] was 9.28 nM.
